Assay results from article PMC2900200 (2008).

T1: LP1 peptide
T1 chain: FPSSWLQRYYLAKRR

T2: Methuselah (Mth) ectodomain, C-terminal biotinylated (Drosophila melanogaster)
T2 sequence (O97148 whole entry, looked up): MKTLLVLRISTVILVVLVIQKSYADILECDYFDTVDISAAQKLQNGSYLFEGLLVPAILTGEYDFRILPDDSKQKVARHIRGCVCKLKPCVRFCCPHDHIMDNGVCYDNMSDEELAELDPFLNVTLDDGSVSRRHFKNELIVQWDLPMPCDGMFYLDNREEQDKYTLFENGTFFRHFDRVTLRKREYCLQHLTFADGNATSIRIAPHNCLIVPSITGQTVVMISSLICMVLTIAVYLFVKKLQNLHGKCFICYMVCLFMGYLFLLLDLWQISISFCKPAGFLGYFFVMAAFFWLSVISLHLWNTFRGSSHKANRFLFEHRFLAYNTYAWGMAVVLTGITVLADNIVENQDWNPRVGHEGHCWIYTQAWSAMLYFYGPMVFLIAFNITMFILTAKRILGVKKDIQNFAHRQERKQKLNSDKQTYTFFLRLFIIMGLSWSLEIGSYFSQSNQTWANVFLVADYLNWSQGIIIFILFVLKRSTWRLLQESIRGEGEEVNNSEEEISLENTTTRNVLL

B1: Methuselah ectodomain (protein)
chain: DILECDYFDTVDISAAQKLQNGSYLFEGLLVPAILTGEYDFRILPDDSKQKVARHIRGCVCKLKPCVRFCCPHDHIMDNGVCYDNMSDEELAELDPFLNVTLDDGSVSRRHFKNELIVQWDLPMPCDGMFYLDNREEQDKYTLFENGTFFRHFDRVTLRKREYCLQHLTFADGNATSIRIAPHNCLIVPSITGQ
B2: LP1 peptide (wild type) (peptide)
peptide: Ac-FPSSWLQRYYLAKRR-NH2
B3: LP1 L11Q mutant peptide (peptide)
peptide: Ac-FPSSWLQRYYQAKRR-NH2
B4: LP1 W5F mutant peptide (peptide)
peptide: Ac-FPSSFLQRYYLAKRR-NH2
B5: LP1 R15Q mutant peptide (peptide)
peptide: Ac-FPSSWLQRYYLAKRQ-NH2
B6: LP1 W5K mutant peptide (peptide)
peptide: Ac-FPSSKLQRYYLAKRR-NH2
B7: LP1 Y9F mutant peptide (peptide)
peptide: Ac-FPSSWLQRFYLAKRR-NH2

Target: T1, LP1 peptide
Experiment: not given

Row | Kd [nM] | Binder
1 | 18 | B1

Target: T2, Methuselah (Mth) ectodomain, C-terminal biotinylated (Drosophila melanogaster)
Experiment: SPR

Row | Kd [nM] | Binder
2 | 18.5 | B2
3 | 24.5 | B3
4 | 12000 | B4
5 | 37.7 | B5
6 | > 15000 | B6
7 | 49.5 | B7
